Measurements as given in the RNAGym collection of RNA variant scans (doi:10.7554/elife.80360).

B1: HDV Ribozyme (parent)
chain: GGCCGGCAUGGUCCCAGCCUCCUCGCUGGCGCCGGCUGGGCAACAUUCCGAGGGGACCGUCCCCUCGGUAAUGGCGAAUGGGACCCA

Variants of: B1
Assay: self-cleavage, relative activity (ratio to wild type); higher = more cleavage; co-transcriptional

Variant	self-cleavage
G11U G38C	0
U12G C26G	1.08
U12G C26U	0.776
U12C C48A	0.762
U12C C48G	0.185
U12G C48G	0.831
U12C G53A	0.369
U12C U79A	0.0615
U12C U79G	0.0791
U12C U79C	0.133
U12A G17C	0.0504
U12A C62U	0.252
U12C G28U	0.0378
U12A U27A	0.791
G11U U60C	0.342
G11U U60A	0.277
U12G A43U	0.0639
U12G A43G	0.237
U12G C63G	0.727
U12G C63A	0.712
U12G C63U	0.755
U12A U46C	0
U12A U46A	0.361
U12G C75G	0

Variant	self-cleavage
U12A U47A	0.302
G11U G54U	0.422
U12C C86A	0.864
U12C G74U	0.0692
U12G G25A	0.151
U12A G25A	0.108
U12A C61A	0.443
U12C A42U	0
U12C A56U	0.499
U12C A56C	0.453
U12A G54C	0.269
G11U U27A	0.511
U12G A45U	0.684
U12C C26G	0.914
U12A G67C	0.244
U12A C22G	0.0405
U12A G50A	0.229
U12A G50U	0.767
U12C U72A	0.107
G11U G52U	0.561
U12C G68A	0.231
U12C G68C	0.145
U12C A51C	0.378
U12C A51G	0.369

Variant	self-cleavage
U12G C41G	0.554
U12G C41A	1.06
G11U G76C	0.532
U12C C57G	0.0831
U12C A78G	0.192
U12G C36G	0
G11U G67U	0.168
U12G A42C	0.217
U12C G38U	0.0739
U12A G52U	0.604
G11U U79C	0.0652
U12C G82A	0.0923
U12C G82U	0.104
U12A G29A	0.113
U12A G29U	0.113
U12G C84G	0.256
U12C G17U	0.308
G11U U47G	0.246
U12A C15A	0.19
U12A C15G	0
U12C C19A	0.0361
G11U G81C	0.126
U12A C66A	0.193
U12A C19A	0.0287

Variant	self-cleavage
G11U G82U	0.138
G11U G50A	0.415
U12A G73U	0.0997
G11U G34U	0.0252
G11U U20A	0.0252
U12C A87U	0.396
U12C C18A	0.0739
U12C C62U	0.348
U12C C62A	0.57
U12C U27G	0.312
G11U G53A	0.427
U12A C13U	0.0978
U12G C33A	0
U12G C33U	0.277
G11U U23A	0.437
G11U U23C	0.554
U12A C33G	0
U12C G67A	0.229
U12C G67C	0.256
U12G A87U	0.813
G11U G74U	0.1
U12G C85U	0.787
U12G C85A	0.712
U12A C41G	0.138

Variant	self-cleavage
U12A C26U	0.982
U12A C26A	0.745
U12A G31C	0
U12G A16G	1.06
U12C A71U	0.453
U12A U79A	0.0791
U12G C64G	0.492
U12C C63A	0.268
U12C C63U	0.389
U12A U60G	0
U12C C66G	0.356
U12A U37C	0.277
U12G C86U	0.403
U12C C13U	0
U12C C13A	0.0665
U12C C13G	0
U12C G50C	0.434
U12G A83G	0.89
U12C G81C	0.18
G11U G80U	0.113
G11U G80C	0
U12C C61A	0.511
U12C G40U	0.0627
U12C G40A	0.305

Variant	self-cleavage
U12A U23G	0.0791
U12C C36U	0.107
U12A U65C	0.506
U12C A70U	0.378
U12C C30G	0.0573
U12C C44U	0.0692
U12A C32U	0.0723
U12A C30U	0.0739
U12C A43U	0.0923
U12C A43C	0.0831
G11U U37G	0
G11U U37A	0.124
U12C G25A	0.17
U12C G25C	0.0923
U12G A70G	1.04
U12A G68C	0.0755
U12A C84A	0.506
U12C C33G	0.101
U12C C33U	0.32
G11U G39U	0.0936
U12C G54A	0.862
U12G A71U	0.791
U12C U69A	0.166
U12A C75G	0.277

Variant	self-cleavage
U12A C75A	0.095
U12A C75U	0.0361
U12A C57G	0.208
U12C G73C	0.116
G11U C85G	0.689
U12C A45C	0.0504
U12A G34C	0.208
U12A C14G	0.145
U12A C14A	0.0504
U12A A83C	0.35
U12A A83U	0.674
U12A A78U	0.128
U12A G59C	0.573
U12C U47G	0.119
U12A C49U	0.499
U12A G28C	0
U12G A78U	0
U12G G17C	0.192
G11U U12A	0.116
U12A C86G	0.32
U12A G80A	0.108
U12G C58A	0.962
U12A U72A	0.0831
